This is an account of results in patent US20080107600A1 (published 2008).

Test [1] has as its target T1, DISC1/ΔBR-FLAG (deleted DISC1 that lacks the FEZ1-binding region, FLAG-tagged) (human, UniProt Q9NRI5 1-854).
T1 sequence: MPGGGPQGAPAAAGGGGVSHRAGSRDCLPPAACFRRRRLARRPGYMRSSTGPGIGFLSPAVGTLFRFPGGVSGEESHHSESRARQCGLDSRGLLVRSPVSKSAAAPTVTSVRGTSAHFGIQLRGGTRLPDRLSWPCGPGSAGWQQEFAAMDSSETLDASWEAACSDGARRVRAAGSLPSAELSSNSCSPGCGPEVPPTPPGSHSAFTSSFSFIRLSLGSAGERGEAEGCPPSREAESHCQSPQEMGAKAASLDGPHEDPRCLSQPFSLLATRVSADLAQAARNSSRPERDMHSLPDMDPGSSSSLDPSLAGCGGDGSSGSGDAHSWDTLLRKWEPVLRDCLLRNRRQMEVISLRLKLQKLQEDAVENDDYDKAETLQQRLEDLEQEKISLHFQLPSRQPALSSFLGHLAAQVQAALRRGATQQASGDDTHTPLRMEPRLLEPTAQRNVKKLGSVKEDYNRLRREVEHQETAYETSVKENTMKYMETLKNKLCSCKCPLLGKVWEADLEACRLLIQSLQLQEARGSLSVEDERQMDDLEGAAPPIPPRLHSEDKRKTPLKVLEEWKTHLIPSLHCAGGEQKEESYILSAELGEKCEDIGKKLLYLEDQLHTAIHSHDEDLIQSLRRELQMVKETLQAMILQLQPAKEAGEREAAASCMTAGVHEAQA
Briefly: co-immunoprecipitation from transfected HEK293T cells, anti-FLAG / anti-HA. As to the method: (a) Yeast two-hybrid assay to determine the binding regions of FEZ1 (upper panel) and DISC1 (lower panel). Open bars indicate the FEZ1 clone obtained by the screening and DISC1 clone used as bait. Closed bars indicate shorter fragments. […] The α-galactosidase activity of yeast transformants were assayed. +++ indicates strongly positive as a positive control. ++, + and − indicate moderately positive, weakly positive and negative, respectively. (b) DISC1 coimmunoprecipitated with FEZ1. HEK293T cells were transfected with DISC1-FLAG and FEZ1-HA, individually or in combination. […] Immunoprecipitates by anti-FLAG or anti-HA antibody were blotted with the reciprocal antibody.
HEK293T cells were transfected with DISC1-FLAG and FEZ1-HA, individually or in combination. FLAG-tagged truncated forms of DISC1 mentioned in the Plasmids section were also transfected in combination with FEZ-HA. Cells were lysed in TNE buffer/1% NP40. Prepared lysates were incubated with anti-FLAG antibody for 2 hours at 4° C. and then with Protein Gagarose (Invitrogen) for 1 hour at 4° C. The agarose beads were then washed five times with TNE buffer. Immunoprecipitates were subjected to SDS-PAGE and blotted with anti-HA antibody. Conversely, immunoprecipitates with anti-HA antibody were blotted with anti-FLAG antibody. PC12 cells were transfected with FEZ1-HA or mock and then lysed in TNE buffer/1% NP40. […]

The target in test [2] is T2, DISC1-FLAG (full-length human DISC1 with a C-terminal FLAG tag) (human, UniProt Q9NRI5 1-854).
T2 construct: also called FLAG-tagged DISC1
T2 sequence: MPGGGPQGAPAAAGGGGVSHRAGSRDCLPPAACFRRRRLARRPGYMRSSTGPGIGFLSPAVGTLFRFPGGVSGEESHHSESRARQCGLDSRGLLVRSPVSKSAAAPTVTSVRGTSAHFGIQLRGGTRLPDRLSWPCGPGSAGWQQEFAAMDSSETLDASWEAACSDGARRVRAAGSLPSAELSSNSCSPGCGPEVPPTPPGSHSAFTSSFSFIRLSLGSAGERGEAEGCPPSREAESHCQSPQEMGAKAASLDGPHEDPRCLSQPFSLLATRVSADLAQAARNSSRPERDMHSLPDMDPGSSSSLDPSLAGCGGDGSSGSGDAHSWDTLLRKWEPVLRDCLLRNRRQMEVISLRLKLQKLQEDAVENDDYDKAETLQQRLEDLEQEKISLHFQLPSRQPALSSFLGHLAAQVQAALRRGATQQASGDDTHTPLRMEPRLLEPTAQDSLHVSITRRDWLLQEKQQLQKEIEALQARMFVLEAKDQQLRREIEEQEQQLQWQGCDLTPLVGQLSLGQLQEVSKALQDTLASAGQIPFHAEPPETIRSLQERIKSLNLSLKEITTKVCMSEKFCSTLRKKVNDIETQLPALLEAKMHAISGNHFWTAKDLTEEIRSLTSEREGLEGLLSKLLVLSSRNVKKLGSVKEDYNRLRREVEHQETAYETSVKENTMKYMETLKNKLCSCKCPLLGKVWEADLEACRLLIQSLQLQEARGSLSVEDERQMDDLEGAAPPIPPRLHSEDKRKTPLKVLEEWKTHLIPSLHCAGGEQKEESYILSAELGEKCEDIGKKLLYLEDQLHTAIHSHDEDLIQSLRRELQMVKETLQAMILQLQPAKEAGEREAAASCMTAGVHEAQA
The test can be described thus: anti-FLAG immunoprecipitation from stable PC12 cells with or without NGF (50 ng/ml, 24 hours), blot with anti-FEZ1. The method, then: Stably DISC1-FLAG-expressing PC12 cells were stimulated with a nerve growth factor (NGF) (50 ng/ml) for 24 hours and collected. Lysates were immunoprecipitated by anti-FLAG antibody. Immunoprecipitated complexes were subjected to SDS-PAGE and blotted with anti-FEZ1 antibody. […] Cells were either unstimulated (b, e, h, k) or stimulated with NGF (50 ng/ml) for 24 hours (c, f, 1,1), and 48 hours (d, g, J, m) and their neurites were subsequently microscopically observed.
HEK293T cells were transfected with DISC1-FLAG and FEZ1-HA, individually or in combination. FLAG-tagged truncated forms of DISC1 mentioned in the Plasmids section were also transfected in combination with FEZ-HA. Cells were lysed in TNE buffer/1% NP40. Prepared lysates were incubated with anti-FLAG antibody for 2 hours at 4° C. and then with Protein Gagarose (Invitrogen) for 1 hour at 4° C. The agarose beads were then washed five times with TNE buffer. Immunoprecipitates were subjected to SDS-PAGE and blotted with anti-HA antibody. Conversely, immunoprecipitates with anti-HA antibody were blotted with anti-FLAG antibody. PC12 cells were transfected with FEZ1-HA or mock and then lysed in TNE buffer/1% NP40. Lysates were immunoprecipitated by anti-HA antibody. Immunoprecipitates were subjected to SDS-PAGE and blotted with anti-actin antibody. […]

B1: FEZ1-HA (human FEZ1 with a C-terminal HA tag) (other, not shown: small tags and cut ends)
chain: MEAPLVSLDEEFEDLRPSCSEDPEEKPQCFYGSSPHHLEDPSLSELENFSSEIISFKSMEDLVNEFDEKLNVCFRNYNAKTENLAPVKNQLQIQEEEETLQDEEVWDALTDNYIPSLSEDWRDPNIEALNGNCSDTEIHEKEEEEFNEKSENDSGINEEPLLTADQVIEEIEEMMQNSPDPEEEEEVLEEEDGGETSSQADSVLLQEMQALTQTFNNNWSYEGLRHMSGSELTELLDQVEGAIRDFSEELVQQLARRDELEFEKEVKNSFITVLIEVQNKQKEQRELMKKRRKEKGLSLQSSRIEKGNQMPLKRFSMEGISNILQSGIRQTFGSSGTDKQYLNTVIPYEKKASPPSVEDLQMLTNILFAMKEDNEKVPTLLTDYILKVLCPT
notes: Expressed from pcDNA3.1(+) in HEK293T or PC12 cells; also called HA-tagged FEZ1; FEZ-HA
Turning to B1, the binding result in test [1] was “no binding”.

B2: endogenous FEZ1 of PC12 cells (other, rat, UniProt P97577 1-393, looked up)
chain: MEAPLVSLDEEFEDIRPCCTEDPEEKPQSLYGTSPHHLEDPSLSELENFSSEIISFKSMEDLVNEFDEKLNVCFRNYNAKTENLAPVKNQLQIQEEEETLRDEEVWDALTDNYIPSLSEDWRDPNIEALNGNSSDTEIHEKEEEDEFIEKSENDSGINEEPLLTADQVIEEIEEMMQNSPDPEEEVEVLEEEDGGEISSQADSVLLQEMQALTQTFNNNWSYEGLRHMSGSELTELLDQVEGAIRDFSEELVHQLARRDELEFEKEVKNSFITVLIEVQNKQKEQRELMKKRRKEKGLSLQSSRIEKGNQMPLKRFSMEGISNILQSGIRQTFGSSGADRQYLNTVIPYEKKSSPPSVEDLQMLTNILFAMKEDNEKVPTLLTDYILKVLCPT
Turning to B2, the binding result in test [2] is reported as “binds”.
